US20220136002A1 (JACKSON LABORATORY, published 2022)

Target: T1, mouse FLT3 receptor (mouse, UniProt Q00342 28-1000)
T1 construct: whole, on cells; Endogenous receptor of the NSG host mouse, knocked out in the NSG Flt3null-Tg(Hu-FLT3L) line; also called CD135
T1 sequence (looked up): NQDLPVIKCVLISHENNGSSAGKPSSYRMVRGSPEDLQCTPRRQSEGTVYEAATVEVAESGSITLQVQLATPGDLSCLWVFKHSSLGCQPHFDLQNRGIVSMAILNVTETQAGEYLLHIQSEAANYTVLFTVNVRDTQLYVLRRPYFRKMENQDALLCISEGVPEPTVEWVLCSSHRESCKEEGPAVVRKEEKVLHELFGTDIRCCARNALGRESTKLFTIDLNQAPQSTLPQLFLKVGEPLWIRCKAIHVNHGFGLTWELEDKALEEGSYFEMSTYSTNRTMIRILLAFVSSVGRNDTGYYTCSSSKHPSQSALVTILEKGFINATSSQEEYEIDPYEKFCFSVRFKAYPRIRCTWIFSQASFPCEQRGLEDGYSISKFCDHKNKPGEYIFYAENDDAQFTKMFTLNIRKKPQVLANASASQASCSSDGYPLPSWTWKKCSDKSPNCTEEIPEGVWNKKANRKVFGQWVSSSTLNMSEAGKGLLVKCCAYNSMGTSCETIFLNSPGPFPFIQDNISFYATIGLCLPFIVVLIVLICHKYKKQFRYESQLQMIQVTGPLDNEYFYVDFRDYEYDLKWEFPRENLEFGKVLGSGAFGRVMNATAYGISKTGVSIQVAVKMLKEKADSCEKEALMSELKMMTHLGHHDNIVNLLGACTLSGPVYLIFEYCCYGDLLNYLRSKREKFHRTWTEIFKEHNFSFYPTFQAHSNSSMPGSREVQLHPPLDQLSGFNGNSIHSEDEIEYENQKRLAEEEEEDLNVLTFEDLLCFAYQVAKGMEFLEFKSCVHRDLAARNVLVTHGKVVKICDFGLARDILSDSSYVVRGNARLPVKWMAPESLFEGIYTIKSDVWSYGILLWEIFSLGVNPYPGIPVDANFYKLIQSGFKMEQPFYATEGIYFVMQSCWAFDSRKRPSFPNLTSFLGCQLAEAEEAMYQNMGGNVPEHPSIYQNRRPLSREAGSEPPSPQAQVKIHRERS
Assay: no direct binding assay; inferred from in vivo mouse genetics (human FLT3L transgenic NSG mice with and without knock-out of mouse Flt3)

B1: human FLT3 ligand (FLT3L) (ligand, UniProt P49771 27-184, looked up)
chain: TQDCSFQHSPISSDFAVKIRELSDYLLQDYPVTVASNLQDEELCGGLWRLVLAQRWMERLKTVAGSKMQGLLERVNTEIHFVTKCAFQPPPSCLRFVQTNISRLLQETSEQLVALKPWITRQNFSRCLELQCQPDSSTLPPPWSPRPLEATAPTAPQP
notes: Expressed in vivo from a 13.8 kb genomic BAC fragment and circulating in mouse serum; also called Hu-FLT3L
binding result: binds
